According to the supplement of paper PMC10567573:

B1: CHCHD3 (parent)
chain: YSGAYGASVSDEELKRRVAEELAL

Variants of: B1
Assay: protein stability index of a GFP-peptide fusion (GPS, HEK-293T) (PSI 1-6); higher = more stable
Conditions: c terminus: a fixed tail appended
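Further: lentivirally expressed fusions sorted by FACS into six bins by GFP to DsRed ratio, PSI derived from sequencing read proportions per bin multiplied by bin number.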

Variant	protein stability index
YSGAYGASVSDETLKRRVAEELAL [E13T]	2.66
YSGAYGASVSDECLKRRVAEELAL [E13C]	2.33
YSGAYGASVSDEKLKRRVAEELAL [E13K]	3.04
YSGAYGASVSDEVLKRRVAEELAL [E13V]	2.38
YSGAYGASVSDEHLKRRVAEELAL [E13H]	2.67
YSGAYGASVSDEDLKRRVAEELAL [E13D]	2.9
YSGAYGASVSDEYLKRRVAEELAL [E13Y]	1.76
YSGAYGASVSDEWLKRRVAEELAL [E13W]	2.56
YSGAYGASVSDEALKRRVAEELAL [E13A]	2.61
YSGAYGASVSDEELKRRVNEELAL [A19N]	3.53
YSGAYGASVSDEELKRRVMEELAL [A19M]	3.43
YSGAYGASVSDEELKRRVPEELAL [A19P]	3.04
YSGAYGASVSDEELKRRVFEELAL [A19F]	2.54
YSGAYGASVSDEELKRRVDEELAL [A19D]	2.84
YSGAYGASVSDEELKRRVGEELAL [A19G]	3.1
YSGAYGASVSDEELKRRVVEELAL [A19V]	3.43
YSGAYGASVSDEELKRRVAMELAL [E20M]	2.16
YSGAYGASVSDEELKRRVAVELAL [E20V]	1.57
YSGAYGASVSDEELKRRVASELAL [E20S]	3.03
YSGAYGASVSDEELKRRVAIELAL [E20I]	2.4
YSGAYGASVSDEELKRRVAWELAL [E20W]	1.85
YSGAYGASVSDEELKRRVACELAL [E20C]	2.48
YSGAYGASVSDEELWRRVAEELAL [K15W]	2.04
YSGAYGASVSDEELPRRVAEELAL [K15P]	2.29

Variant	protein stability index
YSGAYGASVSDEELVRRVAEELAL [K15V]	2.65
YSGAYGASVSDEELLRRVAEELAL [K15L]	2.52
YSGAYGASVSDEELERRVAEELAL [K15E]	3.33
YSGAYGASVSDEELIRRVAEELAL [K15I]	2.5
YSGAYGASVSDEELNRRVAEELAL [K15N]	2.19
YSGAYGASVSDEELYRRVAEELAL [K15Y]	2.72
YSGAYGASVSDEELDRRVAEELAL [K15D]	3.38
YSGAYGAVVSDEELKRRVAEELAL [S8V]	1.78
YSGAYGADVSDEELKRRVAEELAL [S8D]	4.18
YSGAYGACVSDEELKRRVAEELAL [S8C]	2.04
YSGAYGAHVSDEELKRRVAEELAL [S8H]	2.98
YSGAYGALVSDEELKRRVAEELAL [S8L]	1.42
YSGAYGARVSDEELKRRVAEELAL [S8R]	2.88
YSGAYGAKVSDEELKRRVAEELAL [S8K]	3.2
MSGAYGASVSDEELKRRVAEELAL [Y1M]	5.2
GSGAYGASVSDEELKRRVAEELAL [Y1G]	4.87
RSGAYGASVSDEELKRRVAEELAL [Y1R]	4.63
TSGAYGASVSDEELKRRVAEELAL [Y1T]	4.34
QSGAYGASVSDEELKRRVAEELAL [Y1Q]	5.07
LSGAYGASVSDEELKRRVAEELAL [Y1L]	4.87
SSGAYGASVSDEELKRRVAEELAL [Y1S]	5.45
YSGAYGASVSQEELKRRVAEELAL [D11Q]	2.34
YSGAYGASVSWEELKRRVAEELAL [D11W]	2.31
YSGAYGASVSGEELKRRVAEELAL [D11G]	2.01

Variant	protein stability index
YSGAYGASVSEEELKRRVAEELAL [D11E]	1.55
YSGAYGASVSMEELKRRVAEELAL [D11M]	3.01
YSGAYGASVSFEELKRRVAEELAL [D11F]	2.27
YSGAYGASVSVEELKRRVAEELAL [D11V]	3.23
YSGAYGASVSPEELKRRVAEELAL [D11P]	1.7
YSGAYGASVSREELKRRVAEELAL [D11R]	2.24
YSGAYGASVSKEELKRRVAEELAL [D11K]	2.49
YSGAYGASVSDWELKRRVAEELAL [E12W]	3.11
YSGAYGASVSDPELKRRVAEELAL [E12P]	3.73
YSGAYGASVSDVELKRRVAEELAL [E12V]	2.37
YSGAYGTSVSDEELKRRVAEELAL [A7T]	2.99
YSGAYGESVSDEELKRRVAEELAL [A7E]	4.3
YSGAYGLSVSDEELKRRVAEELAL [A7L]	2.42
YSGAYGWSVSDEELKRRVAEELAL [A7W]	1.39
YSGAYGKSVSDEELKRRVAEELAL [A7K]	2.38
YSGAYGNSVSDEELKRRVAEELAL [A7N]	3.61
YSGAYGPSVSDEELKRRVAEELAL [A7P]	2.94
YSGAYGVSVSDEELKRRVAEELAL [A7V]	2.56
YSGAYGGSVSDEELKRRVAEELAL [A7G]	3.43
YSGAYGRSVSDEELKRRVAEELAL [A7R]	2.77
YSGAYGISVSDEELKRRVAEELAL [A7I]	2.71
YSGAYGSSVSDEELKRRVAEELAL [A7S]	3.48
YSGAYGASVSDEELKRWVAEELAL [R17W]	2.38
YSGAYGASVSDEELKRLVAEELAL [R17L]	2.76

Variant	protein stability index
YSGAYGASVSDEELKREVAEELAL [R17E]	3.17
YSGAYGASVSDEELKRFVAEELAL [R17F]	2.12
YSGAYGASVSDEELKRCVAEELAL [R17C]	2.06
YSGAYGASVSDEELKRKVAEELAL [R17K]	2.31
YSGAYLASVSDEELKRRVAEELAL [G6L]	2.06
YSGAYFASVSDEELKRRVAEELAL [G6F]	2.09
YSGAYMASVSDEELKRRVAEELAL [G6M]	2.4
YSGAYEASVSDEELKRRVAEELAL [G6E]	4.05
YSGAYAASVSDEELKRRVAEELAL [G6A]	1.84
YSGAYPASVSDEELKRRVAEELAL [G6P]	2.48
YSGAYWASVSDEELKRRVAEELAL [G6W]	1.64
YSGAYQASVSDEELKRRVAEELAL [G6Q]	2.81
YSGAYYASVSDEELKRRVAEELAL [G6Y]	1.9
YSGAYGASTSDEELKRRVAEELAL [V9T]	2.19
YSGAYGASASDEELKRRVAEELAL [V9A]	3.3
YSGAYGASKSDEELKRRVAEELAL [V9K]	2.57
YSGAYGASSSDEELKRRVAEELAL [V9S]	3.07
YSGAYGASPSDEELKRRVAEELAL [V9P]	3.13
YSGAYGASFSDEELKRRVAEELAL [V9F]	2.67
YSGAYGASGSDEELKRRVAEELAL [V9G]	3.06
YSGAYGASMSDEELKRRVAEELAL [V9M]	2.7
YSGAYGASESDEELKRRVAEELAL [V9E]	4.28
